In the nanobody polyreactivity screen of Harvey et al. (2022):

Experiment: yeast display, Sf9 membrane polyspecificity reagent, FACS + sequencing; frameworks hold sequencing errors
Outline: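 Nanobodies came from a synthetic yeast display library in Saccharomyces cerevisiae BJ5465, induced with galactose for 36–48 hours and stained for 1 hour at 4 °C with 10% biotinylated, detergent-solubilized Sf9 membrane reagent. Cells were enriched on streptavidin microbeads and then FACS-sorted, with low and high (top ~1%) gates set on anti-HA fluorescence for expression and streptavidin fluorescence for reagent binding. Each polyreactivity label reflects the gate a clone came from. Genes were amplified by colony PCR, sequenced by MiSeq 2 × 250 and filtered by CDR length.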

Sequence | polyreactivity (PSR sort gate)
QVQLVESGGGLVQAGGSLRLSCAASGRIFQYSAMGWYRQAPGKEREFVASITFRGGRTNYADSVKGRFTISRDNAKNTVYLQMNSLKPEDTAVYYCAVSLRRGGSGYAYDYWGQGTQVTVSS | high polyreactivity
QVQHVESGGGLVQARGSLRLSCAASASIYPSYAMGWYRQAPGKERELVAVINSGGSTYYADSVKGRFTISRDNAKNTVYLQMNILNPEDTAGYYCAAYRRRYPRFDYWGPGTQVTVSS | high polyreactivity
QVQLVESGGGLVQAGGSLRLSCAASGIIFRYYAMGLYRQAPGKERELVAAISQGGGSTYYADSVKGRFTISRDNAKYTVYLPMKTLKPEDTAVYYCNTGRRHGLTQGGDYWGQGTQVTVSS | high polyreactivity
QVQLVESGGGLVQAGGSLRLSCAASGRTFDGYTMGWYRQAPGKERELVAAIRRSGGSTYYADSVKGRFTISRDNAKNTVYLQINSLNPEDTAVYYCAASWRDIYRHYNVYPYDYWGQGTQVTVSS | low polyreactivity
QVQLVESGGGLVQAGGSLRLSCAASGSIFRLNAMGWYRQAPGKERELVARIDSSGSTNYADSVKGRFTISRDNAKNTVYLQMNSLKPEDTAVYYCAAGLVLIVGMDSWGQGTQVTVSS | low polyreactivity
QVQLVESGGGVVQAGGSLRLSCAASGRTFPYNPMGWYRQAPGKERELVAAISGRGGSTYYADSVKGRFTISRDNAKNTVYLQMNSLKPEVSAVYYCDARLPWSYYRTQGYNYWGQGTQVTVSS | high polyreactivity
QVQLEESGGGLVQAGGSLRLICAASAMGRYRQAPGKERELVAVINSTGGSTYYADSVKGRFTISRDNAKNTVYLQMYSLKPDDTAVYYCARVTRRGPGYTTLYCRYDYWGQGTQVTVSS | low polyreactivity
QVQLVESGGGLVQAGGSLRLSCAASGSTFSENAMGWYRQAPGKERELVAAISWGGGSTYYADSVKGRFTISRDNAKNTVYLQMNSLKPEDTAVYYCIADVFDDYGYFESDYWGQGTQVTVSS | low polyreactivity
HVQLVESGGGLVQAGGSLRLSSTASGSTFGYYAMGWNRQAPGKERELVAAISGIGGSTYYADSVKGRFTISRDNAKNTVYLQMNSLKPEDTAVYFCAADLYYVTWDYNYWGQGTQVTVSS | low polyreactivity
QVQLVESGGGLVQAGGSLLLSCAASGSIFGSNAMGWYTQATVKERELVAVITNGGRTYYADSVKGLFTISRDNAKNTVYLQMNSLKPEDTAVYYCAASRVYGWYGSYSTYGSVGQGTQVTVSS | high polyreactivity
QVPLVESGGGLVQAGGSLRLSCAASGFTFTPYGMGWYRPAPGKERELVAAITWNGGRTYYADSVKGRFTISRDNAKNTVYLQMNSLKPEDTAVYYCAAVAWSWQKRGYWGQGTQVTVSS | high polyreactivity
QVQLQESGGGLVQAGGSLRLSCAASSNNSTLDDMCWYRQAPGKEREFVASIGSGGITNYADSVKGRFTISRDNAKNTVYLQMNSLKPEDTAVYYCAVLNQAYTDLIYWGQGTQVTVSS | high polyreactivity
QVQLVESGGGLVQAGGSLRLSCAASGLTFRLNAMGWYRQAPGKERELVAAITAIGDRTYYADSVKGRFTISRDNAKNTVYLQMKSLKQEDTAVYYCNVTPRRAQVRIGNYWGQGTQVTVSS | high polyreactivity
QVQLVESGGGLVQAGGSLRLSCAASGNTFHPYAMGWYRQAPGKERALVAAITKSGGSTYYADSVKGRFTISRDNAKNTVYLQMNSLKPEDTAVYYCATDGYEYTDYGSSGYDYWGQGTQVTVSS | low polyreactivity
QVQLVESGGGLVQAGGSLRLSCAASGITFIRNAMGWYRQAPGKERELVAAISYRGGSTYYADSVKGRFTISRDNAKNTVYLQMNSLKPEDTAVYYCAAKRYGYKMYYWGQGTQVTVSS | high polyreactivity
QVQLVESGGGLVQAGGSLRLSCAASGSTFRRYAMGWYRPAPGKERELVAVITSRGGSTYYADSVKGRFTISRDNAKNTVYLQMNSLKPEDTAVYYCAAGYTSGYWANHYTPRFYYWGQGTQVTVSS | high polyreactivity
QVQLVESGGGLVQAGGSLRLSCAASGSTLPANSMGWYRQAPGKERELVAAITITTDGSTYYADSVKGRFTISRDNAKNTVYLQMNSLKPEDTAVYYCAVARYRYHIRKMGYWGQGTQVTVSS | low polyreactivity
QVQLVESGGALVQAGGSLRLSCAASGFIFYSWYAMGWYRQAPGKQRELVAAIRSGGSTYYADSVKGRFTISRDNAKNTVYLQMNSLKPEDTAVYYCAVKYSWSEYGYWGQGTQVTVSS | low polyreactivity
QVQLVESGGGLVQAGGSLRLSCAASGRIFVKYVMGWYRQAPGKERELVAAITYTGGTYYADSVKGRFTISRDTAKNTVYLQMNSLKPEETAVYYCAADYQGSYYSGSYQTWTEYYYWGQGTQVTVSS | high polyreactivity
QVQLVESGGGLVQAGGSLRLSCAASGIIFGWYAMGWYRQAPGKERELVAAINWSGTSTYYADSVKGRFTISRDNAKNTVYLQMNSLKPEDPAVYYCAAYFQKLPTTGYEYWGQGTQVTVSS | low polyreactivity
QVQLVESGGGLVQAGGSLRLSCAASGNTFNSYAMGWYRQAPGKERELVAAISSSTGRTYYADSVKGRFTISRDNAKNTVYLQMNSLKPEDTAVYYCNAYLYLSRNGYWGQGTQVTVSS | high polyreactivity
QVQLVESGGGLVQAGGSLRLSCAASGSIFGINAMGWYRQAPGKERELVAAITWSGGSTFYADSVKGRFTISRDNAKNTVYLQMTRLKPEDTAVYYCAADSGREPKGPSRLTYWGQGTQVTVSS | high polyreactivity

Sequence | polyreactivity (PSR sort gate)
QVQLVESGGGLVQAGGSLRLSCAASGSTLDEYVMGWYRQAPGKEREFVAAISRSGSSTYYADSVKGRFTISRDNAKNTVYLQMNSLKPEDTAVYYCAARLYSSVVRYRYGYWGQGTQVTVSS | high polyreactivity
QVQLVESGGGLVQAGGSLRLSCAASGRTFYGYAMGWYRQAPGKERELVASISRDGSTNYADSVKGRFTISRDNAKNTVYLQMYSLKPEDTAVYYCAADIWYYRYPIYYYSYDYWGQGTQVTVSS | low polyreactivity
QVQLVESGGGLVQAGGSLRLSCAASGSIFSSNVMGWYRQAPGKERELVAAITRRGSTTYYADSVKGRFTISRDNAKNTVYLQMNSLKPEDTAVYYCATKAKYGRQYLMDYWGQGTQVTVSS | high polyreactivity
QVQLVESGGCLVKAGGSLRISCAASGFTFTKYAMGWYRPAPGKESELVAAINRSGRTYYADSVKGRFTISRDNAKNTVYLQMNSLKPEDTAVYDCAAYTRYQYRAYDYWGQGTQVTVSS | high polyreactivity
QVQLVESGGGLVQAGVSLRLSCAASGSIFDVYAMGWYRQAPGKERELVATISYGDSSTYYADSVKGRFTISRDNAKNTVYLQMNSLKPEDTAVYYCAADYLTAPRWRQWGEMDYWGQGTQVTVSS | low polyreactivity
QVQLVESGGGLVQAGGSLRLSCAASGSIFWSNAMGWYIQAPGKERELVAAITGGGTTNYADSVKGRFTISRDNAKNTVYLQMNSLKPEDTAVVYTVSSAQYDYWGQGTQVTVSS | low polyreactivity
QVQLVESGGGLVQAGGSLRLSCAASGSIFNYYAMGWYRQAPGKERELVAAITYGGASTYYADSVKGRFTISRDNAKNTVYLQMNSLKPEDTAVYYCAADSFTRWVFYRSTVRGFGYWGQGTQVTVSS | high polyreactivity
QVQLVESVGGLVQAGGSLRLSCAAYGYTFYSNAMGWYRQAPGKDRELVASIRSRGRSTYYADSVKGRFTISRDNAKNTVYLQMNSLKPEDTAVYYCAPLPNNPAVYAYDYWGEGTQVTVSS | low polyreactivity
QVQLVESAGGLVQAGGSLRLSCAASGSIFHYYAMGWYRQAPGKERELVAAINSSGGSRTYYADSVKGRFTISRDKAKNTVYLQMNSLKPEDTAVYYCAADYRVVWRAYDYWGQGTQVTVSS | low polyreactivity
QVQLVESGGGLVQAGGSLRLSCAASGNTFYRNAMGWYRQAPGKERELVAAITFSTGRTYYADSVKGRFTISRDNAKNTVYLQLNSLKPEDTAVYYCAAFYSGGDYWGQCTQVTVSS | high polyreactivity
QVQLVESGGGLVQAGGSLRLSCAASGFTFSYYAMGWYRQAPGKERELVAAITSSAGSTYYADSVKGRFTISRDNAKNTVYLQMNSLKPEDTAVYYCNAVYSKLNGGYDYWGQGTQVTVSS | low polyreactivity
QVQLVESGGGLVQAGGSLRLSCAASGITFDYYAMGWYRQAPGKERELVAAITSVGNTYYADSVKGRFTISRDNAKNTVYLQMNSLKPEDTAVYYCNALSFYSLVSFDYWGQGTQVTVSS | low polyreactivity
QVQLVESGGGLVQAGGSLRLSCAASGITFYKNTMGWYRQAPGKERELVAAISSSGDNTFYADSVKGRFTISRDNAKNTVYLQMNSLKPEDTAVYYCATYRVINTIRGYYYTYDYWGQGTQVTVSS | high polyreactivity
QVQLVESGGGLVQAGGSLRLSCAASGRIFAGYAMGWYRQAPGKERELVAAISNARRTNYADSVKGRFTISRDNAKNNVYLHMNSLKPEDTAVYYCAASRYGRKFSLYDYYYWGQGTQVTVSS | high polyreactivity
QVQLVESGGGLVQEGGSLRLICAASGLIFPRYSMGWYRQAPGKERELVAAITRGGSTYYADSVKGRFTISRDNAMNTVYLQMNSLKQEDTAVSYCNAELPVHWSWYVYWGQGTQVTVSS | low polyreactivity
QVQLVESGGGLVQAGGSLRLSCAASGSTFQPYAMGWYRQAPGKEREFVATISGSAGSTYYADSVKGRFKISRDNAKNTVYLQMNSLKPEDTAVYYCNARPARKSLDYDYWGQGTQVTVSS | low polyreactivity
QVQLVESGGGLVQAGGSLRLSCAASGFTFGDYAMGWYRQAPGIERELVAAIRSGGSTNYADSVKGRFTISRDNAKNTVYLQMNSLNPEDTAVYYCAAEWPHGQGAWSFFCRDSWGQGTQVTVSS | low polyreactivity
QVQLVDSGGGLVQAGGSLRLSCAASGSIIGVNAMGWYRQAPGKERELVAAISWSGSSTRYADSVKGRFTISRDNAKNTVYLQMNSLKPEDTAVYYCAAEAQTKWWDYYYWGQGTQVTVSS | high polyreactivity
QVQLVESGGGLVQAGGSLRLSCAASGSIFSAYAMGWYRQAPGKERELVAAISDSGDSTYYADSVKGRFTISRDNAKNTVYLQMNSLKPEDTAVYYCAAESPKWGQGTQVTVSS | low polyreactivity
QVQLVESGGGLVQAGGSLRLSCAASGSIFADYTMGWYRQAPGKERELVAAISSDDSTYYADSVKGRFTISRDNAKNTVYLQMNSLKPEDTAVYYCNDDGSIGPEEYWGQGTQVTVSS | low polyreactivity
QVQLVESGGGLVQAGGSLRLSCAASGRIFARYTMGWYRQAPGKEREFVAGIRSSGGRTYYADSVKGRFTISRDNAKNTVYLQMNSLKPEDTALYYCNAGGSWYFARYDYWGQGTQVTVSS | low polyreactivity
